Data: US20250340591A1, “COMPOSITION FOR PREVENTING OR TREATING INFLAMMATORY BOWEL DISEASE CONTAINING NOVEL COMPOUND” (ANYGEN CO., LTD., priority 2021, published 2025)
Square brackets hold non-standard residues; d marks the D form. Ends that are not written are not given here. Peptide text beside a SMILES is read from it. * marks the point of attachment. His(Trt) = N[C@@H](Cc1cn(C(c2ccccc2)(c2ccccc2)c2ccccc2)cn1)C(=O)O; Biotin = O=C1N[C@H]2[C@H](CS[C@H]2CCCCC(=O)*)N1; 4‑chlorobenzhydryl = Clc1ccc(C(c2ccccc2)*)cc1; Bip = N[C@@H](Cc1ccc(-c2ccccc2)cc1)C(=O)O; dPhe(4-Br) = N[C@H](Cc1ccc(Br)cc1)C(=O)O; dPhe(4-Cl) = N[C@H](Cc1ccc(Cl)cc1)C(=O)O; dPhe(4-Me) = Cc1ccc(C[C@@H](N)C(=O)O)cc1; Trt = c1ccc(C(c2ccccc2)(c2ccccc2)*)cc1; dPhe(4-F) = N[C@H](Cc1ccc(F)cc1)C(=O)O; Dmt = Cc1cc(O)cc(C)c1C[C@H](N)C(=O)O; Benzhydryl = c1ccc(C(c2ccccc2)*)cc1; Palmitoyl = CCCCCCCCCCCCCCCC(=O)*; Myristoyl = CCCCCCCCCCCCCC(=O)*; Lauroyl = CCCCCCCCCCCC(=O)*; Decanoyl = CCCCCCCCCC(=O)*; Octanoyl = CCCCCCCC(=O)*; SO3H = O=S(=O)(O)*; Bn = c1ccc(C*)cc1

T1: GPR39 (Homo sapiens, UniProt O43194)
T1 sequence (O43194 1-453): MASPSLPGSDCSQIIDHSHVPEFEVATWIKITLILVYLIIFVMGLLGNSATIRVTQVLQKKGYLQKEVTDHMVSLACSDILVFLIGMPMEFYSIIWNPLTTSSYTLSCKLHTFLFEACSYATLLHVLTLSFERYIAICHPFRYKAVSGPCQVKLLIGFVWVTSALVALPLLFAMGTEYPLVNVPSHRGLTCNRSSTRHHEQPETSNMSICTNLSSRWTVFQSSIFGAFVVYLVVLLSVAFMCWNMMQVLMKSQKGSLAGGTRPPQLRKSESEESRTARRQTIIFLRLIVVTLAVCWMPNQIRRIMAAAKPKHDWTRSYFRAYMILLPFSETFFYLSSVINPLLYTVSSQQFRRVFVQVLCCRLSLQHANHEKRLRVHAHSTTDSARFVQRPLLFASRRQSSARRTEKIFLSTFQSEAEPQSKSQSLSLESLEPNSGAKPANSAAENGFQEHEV

T2: GPR39 (G protein coupled receptor 39) (UniProt O43194 1-453, limits assumed)
T2 sequence (looked up): T1 sequence (O43194 1-453)

B1: HKFY-42 (peptide)
peptide: H(Trt)K(Octanoyl)FYHQQARF
modifications: not fully specified; printed as His(trt)-Lys(caprylic)-Phe-Tyr-His-Gln-Gln-Ala-Arg-Phe
B2: HKFY-39 (peptide)
peptide: H(Trt)K(Octanoyl)FYSQNGARF
modifications: also: C-terminal amide in IUPAC name, not in sequence formula, .39 lacks Gln-Asn
B3: HKFY-40 (peptide)
peptide: H(Trt)K(Octanoyl)FYSHQQARF
modifications: not fully specified; printed as His(trt)-Lys(caprylic)-Phe-Tyr-Ser-His-Gln-Gln-Ala-Arg-Phe
B4: HKFY-38 (peptide)
peptide: H(Trt)K(Octanoyl)FYSDQQARF
modifications: not fully specified; printed as His(trt)-Lys(caprylic)-Phe-Tyr-Ser-Asp-Gln-Gln-Ala-Arg-Phe

Legend:
GPR39 = molecular target: T1, GPR39; assay: luciferase assay system (SRE luciferase reporter gene, CV-1 cells expressing GPR39); assay type: cell-based; set-up: expressed in transfected cells; host or cells: CV-1 fibroblast cell line (Korea Cell Line Bank), adenoviral transduction at 50 MOI
[1] = molecular target: T2, GPR39 (G protein coupled receptor 39); assay: cell-based or functional assay

| Molecule | ECmax (−fold induction over basal) (GPR39) [fold induction over basal] | EC50; SRE-luciferase reporter [1] [nM] | ECmax; SRE-luciferase reporter [1] |
| --- | --- | --- | --- |
| CCCCCCCC(=O)NCCCC[C@H](NC(=O)[C@@H](N)Cc1cn(C(c2ccccc2)(c2ccccc2)c2ccccc2)cn1)C(=O)N[C@@H](Cc1ccccc1)C(=O)N[C@@H](Cc1ccc(O)cc1)C(=O)N[C@@H](Cc1c[nH]c2ccccc12)C(=O)O [HKFY-44, N6-octanoyl-N2-(Nt-trityl-L-histidyl)-L-lysyl-L-phenylalanyl-L-tyrosyl-L-tryptophan] (H-[His(Trt)]K(Octanoyl)FYW-OH) | 20 ± 0.47 |  |  |
| CCCCCCCC(=O)NCCCC[C@@H](NC(=O)[C@@H](N)Cc1cn(C(c2ccccc2)(c2ccccc2)c2ccccc2)cn1)C(=O)N[C@H](Cc1ccc(Cl)cc1)C(=O)N[C@@H](Cc1ccc(O)cc1)C(=O)O [HKFY-16, ((R)-2-((R)-2-((S)-2-amino-3-(1-trityl-1H-imidazol-4-yl)propanamido)-6-octanamidohexanamido)-3-(4-chlorophenyl)propanoyl)-L-tyrosine] (H-[His(Trt)][dK](Octanoyl)[dPhe(4-Cl)]Y-OH) | 27.9 ± 3.4 |  |  |
| CCCCCCCCCC(=O)NCCCC[C@H](NC(=O)[C@@H](N)Cc1cn(C(c2ccccc2)(c2ccccc2)c2ccccc2)cn1)C(=O)N[C@@H](Cc1ccccc1)C(=O)N[C@@H](Cc1ccc(O)cc1)C(=O)O [HKFY-24, N6-decanoyl-N2-(Nt-trityl-L-histidyl)-L-lysyl-L-phenylalanyl-L-tyrosine] (H-[His(Trt)]K(Decanoyl)FY-OH) | 7.03 ± 0.57 |  |  |
| CCCCCCCC(=O)NCCCC[C@H](NC(=O)[C@@H](N)Cc1cn(C(c2ccccc2)(c2ccccc2)c2ccccc2)cn1)C(=O)N[C@H](Cc1ccc(Br)cc1)C(=O)N[C@@H](Cc1ccc(O)cc1)C(=O)O [HKFY-29, ((R)-2-((S)-2-((S)-2-amino-3-(1-trityl-1H-imidazol-4-yl)propanamido)-6-octanamidohexanamido)-3-(4-bromophenyl)propanoyl)-L-tyrosine] (H-[His(Trt)]K(Octanoyl)[dPhe(4-Br)]Y-OH) | 26.8 ± 1.87 |  |  |
| [dH](Trt)K(Octanoyl)[dPhe(4-Me)]Y [HKFY-31] |  | 20 | 20.9 -fold induction over basal |
| [dH](Trt)K(Octanoyl)FY [HKFY-4] |  | 130 | 16.8 -fold induction over basal |
| HK(Octanoyl)FY (not fully specified; also: His1 substituent: adamantan-1-yl or adamantanmethyl) [HKFY-23] |  | 2600 | 15 -fold induction over basal |
| H(Trt)K(Octanoyl)[dPhe(4-F)]Y-OH [HKFY-28] |  | 74 | 22.9 -fold induction over basal |
| H(Trt)K(Octanoyl)[dPhe(4-Br)]Y-OH [HKFY-29] |  | 310 | 26.8 -fold induction over basal |
| His(Trt)-Lys(Octanoyl)-Phe-OH [HKFY-49] |  | 320 | 18.3 -fold induction over basal |
| H(Benzhydryl)K(Octanoyl)[dPhe(4-Me)][Dmt] [HKFY-36] |  | 150 | 9.9 -fold induction over basal |
| B1 |  | 1580 | 11.8 -fold induction over basal |
| H(Trt)K(Palmitoyl)FY-OH [HKFY-27] |  | 560 | 20.4 -fold induction over basal |
| H(Trt)K(Octanoyl)[dPhe(4-Me)]Y [HKFY-30] |  | 8 | 23.9 -fold induction over basal |
| H(4‑chlorobenzhydryl)K(Octanoyl)FY [HKFY-21] |  | 136000 | 18.3 -fold induction over basal |
| GSH(Trt)K(Octanoyl)FY [HKFY-37] |  | 1840 | 16 -fold induction over basal |
| B2 |  |  | 12.1 -fold induction over basal |

| Molecule | ECmax (−fold induction over basal) (GPR39) [fold induction over basal] | EC50; SRE-luciferase reporter [1] [nM] | ECmax; SRE-luciferase reporter [1] |
| --- | --- | --- | --- |
| H(Trt)K(Octanoyl)FYW [HKFY-44] |  | 370 | 20 -fold induction over basal |
| H(Trt)K(Octanoyl)YY-OH [HKFY-48] |  | 330 | 14.4 -fold induction over basal |
| H(Bn)K(Octanoyl)FY [HKFY-3] |  | 4130 | 9.2 -fold induction over basal |
| H(Benzhydryl)K(Octanoyl)[dPhe(4-Me)]Y(SO3H) [HKFY-35] |  | 280 | 18.9 -fold induction over basal |
| H(Benzhydryl)K(Octanoyl)FY [HKFY-33] |  | 150 | 20 -fold induction over basal |
| Biotin-H(Trt)K(Octanoyl)[Bip]Y [HKFY-45] |  | 140 | 21 -fold induction over basal |
| HK(Octanoyl)[dPhe(4-Me)]Y (not fully specified (residue 1)) [HKFY-32] |  | 2 | 21.5 -fold induction over basal |
| H(Trt)K(Octanoyl)YF-OH [HKFY-47] |  | 300 | 13 -fold induction over basal |
| H(Trt)K(Octanoyl)FYQNQARF (also: C-terminal Phe amide in IUPAC name, not in sequence formula) [HKFY-43] |  | 1210 | 12.1 -fold induction over basal |
| H(Trt)K(Lauroyl)FY-OH [HKFY-25] |  | 630 | 7.72 -fold induction over basal |
| B3 |  | 1300 | 13.4 -fold induction over basal |
| H(Trt)K(Octanoyl)FYQNGARF (not fully specified (C-terminus)) [HKFY-41] |  | 9550 | 12.2 -fold induction over basal |
| H(Trt)K(Myristoyl)FY-OH [HKFY-26] |  | 280 | 19.8 -fold induction over basal |
| H(4‑methylbenzhydryl)K(Octanoyl)FY [HKFY-22] |  | 59800 | 21.3 -fold induction over basal |
| B4 |  | 3500 | 16.5 -fold induction over basal |
| H(Trt)K(Octanoyl)FW [HKFY-46] |  | 260 | 20 -fold induction over basal |
| H(Trt)K(Decanoyl)FY-OH [HKFY-24] |  | 240 | 7.03 -fold induction over basal |
